According to patent US20220356258A1 (Boehringer Ingelheim, published 2022):

T1: IL-36 receptor (IL-36R) (UniProt Q9HB29 20-335, limits assumed)
T1 sequence (looked up): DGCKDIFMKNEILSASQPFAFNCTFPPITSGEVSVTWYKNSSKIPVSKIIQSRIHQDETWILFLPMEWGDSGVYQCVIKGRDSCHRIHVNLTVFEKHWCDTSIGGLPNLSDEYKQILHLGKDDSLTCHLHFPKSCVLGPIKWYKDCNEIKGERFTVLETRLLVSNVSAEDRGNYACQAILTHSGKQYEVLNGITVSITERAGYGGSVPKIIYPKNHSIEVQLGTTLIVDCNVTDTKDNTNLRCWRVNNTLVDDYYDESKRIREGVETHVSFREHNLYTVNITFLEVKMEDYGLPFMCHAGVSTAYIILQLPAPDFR


Columns and labels:
[1] = target: T2, FcRn (Homo sapiens (Human), UniProt P55899 24-297; P61769 21-119); assay: SPR, FcRn binding
T2 construct: In nature it is a heterodimer of the FcRn alpha chain and beta-2-microglobulin; also called neonatal Fc receptor; copies: 1 + 1

[2] = target: T1, IL-36 receptor (IL-36R); assay: cell-based or functional assay
[3] = target: T3, protein A/G (immobilized on the SPR sensor chip); assay: SPR, first step: capture on protein A/G immobilized on the sensor chip
T3 construct: Capture protein in the first step of the IL36R SPR assay; also called protein A/G sensor chip

[4] = target: T1, IL-36 receptor (IL-36R); assay: SPR, second step: IL36R binding activity of the species bound to protein A/G

Binding [%] (FcRn binding, SPR) [1] | IL36R bioassay Potency [%] [2] [%] | Recovery [%] (amount of species binding to protein A/G) [3] | Potency [%] (IL36R binding, SPR) [4] | Binder
 |  | 70 | 100 | Spesolimab BP3 fraction (CEX basic peak fraction BP3) (antibody, human IgG1, kappa, L234A L235A, IgG1; Cation exchange fraction, RT 33.5-36.2 min, 1.3% of total CEX area; also called most basic fraction BP3) heavy: not shown light: QIVLTQSPGTLSLSPGERATMTCTASSSVSSSYFHWYQQKPGQAPRLWIYRTSRLASGVPDRFSGSGSGTDFTLTISRLEPEDAATYYCHQFHRSPLTFGAGTKLEIKRTVAAPSVFIFPPSDEQLKSGTASVVCLLNNFYPREAKVQWKVDNALQSGNSQESVTEQDSKDSTYSLSSTLTLSKADYEKHKVYACEVTHQGLSSPVTKSFNRGEC
94 | 91 | 93 | 101 | Spesolimab CMC2 source (Drug Substance source material, unfractionated) (antibody, human IgG1, kappa, L234A L235A, Humanized monoclonal IgG1 anti-IL-36R antibody, CAS 2097104-58-8, produced in CHO-DG44 cells; This is the unfractionated material from which the CEX fractions were collected) heavy: not shown light: QIVLTQSPGTLSLSPGERATMTCTASSSVSSSYFHWYQQKPGQAPRLWIYRTSRLASGVPDRFSGSGSGTDFTLTISRLEPEDAATYYCHQFHRSPLTFGAGTKLEIKRTVAAPSVFIFPPSDEQLKSGTASVVCLLNNFYPREAKVQWKVDNALQSGNSQESVTEQDSKDSTYSLSSTLTLSKADYEKHKVYACEVTHQGLSSPVTKSFNRGEC
91 | 97 | 84 | 100 | Spesolimab BP2 fraction (CEX basic peak fraction BP2) (antibody, human IgG1, kappa, L234A L235A, IgG1; Cation exchange fraction, RT 31.7-33.5 min, 2.4% of total CEX area) heavy: not shown light: QIVLTQSPGTLSLSPGERATMTCTASSSVSSSYFHWYQQKPGQAPRLWIYRTSRLASGVPDRFSGSGSGTDFTLTISRLEPEDAATYYCHQFHRSPLTFGAGTKLEIKRTVAAPSVFIFPPSDEQLKSGTASVVCLLNNFYPREAKVQWKVDNALQSGNSQESVTEQDSKDSTYSLSSTLTLSKADYEKHKVYACEVTHQGLSSPVTKSFNRGEC
95 | 110 | 95 | 102 | Spesolimab MP fraction (CEX main peak fraction) (antibody, human IgG1, kappa, L234A L235A, IgG1) heavy: not shown light: QIVLTQSPGTLSLSPGERATMTCTASSSVSSSYFHWYQQKPGQAPRLWIYRTSRLASGVPDRFSGSGSGTDFTLTISRLEPEDAATYYCHQFHRSPLTFGAGTKLEIKRTVAAPSVFIFPPSDEQLKSGTASVVCLLNNFYPREAKVQWKVDNALQSGNSQESVTEQDSKDSTYSLSSTLTLSKADYEKHKVYACEVTHQGLSSPVTKSFNRGEC

The next lines start with the binder.

Binder | Binding [%] (FcRn binding, SPR) [1] | IL36R bioassay Potency [%] [2] [%] | Recovery [%] (amount of species binding to protein A/G) [3] | Potency [%] (IL36R binding, SPR) [4]
Spesolimab AP4 fraction (CEX acidic peak fraction AP4) (antibody, human IgG1, kappa, L234A L235A, Humanized IgG1 anti-IL-36R antibody from CHO-DG44 cells; Cation exchange fraction, RT 16.0-18.7 min, 0.5% of total CEX area; also called most acidic fraction AP4) heavy: not shown light: QIVLTQSPGTLSLSPGERATMTCTASSSVSSSYFHWYQQKPGQAPRLWIYRTSRLASGVPDRFSGSGSGTDFTLTISRLEPEDAATYYCHQFHRSPLTFGAGTKLEIKRTVAAPSVFIFPPSDEQLKSGTASVVCLLNNFYPREAKVQWKVDNALQSGNSQESVTEQDSKDSTYSLSSTLTLSKADYEKHKVYACEVTHQGLSSPVTKSFNRGEC | 69 | 60 | 75 | 93
Spesolimab AP2 fraction (CEX acidic peak fraction AP2) (antibody, human IgG1, kappa, L234A L235A, IgG1; Cation exchange fraction, RT 22.7-24.1 min, 2.4% of total CEX area) heavy: not shown light: QIVLTQSPGTLSLSPGERATMTCTASSSVSSSYFHWYQQKPGQAPRLWIYRTSRLASGVPDRFSGSGSGTDFTLTISRLEPEDAATYYCHQFHRSPLTFGAGTKLEIKRTVAAPSVFIFPPSDEQLKSGTASVVCLLNNFYPREAKVQWKVDNALQSGNSQESVTEQDSKDSTYSLSSTLTLSKADYEKHKVYACEVTHQGLSSPVTKSFNRGEC |  | 94 | 90 | 99
Spesolimab AP1a fraction (CEX acidic peak fraction AP1a) (antibody, human IgG1, kappa, L234A L235A, IgG1; Cation exchange fraction, RT 27.3-28.2 min, 13.6% of total CEX area) heavy: not shown light: QIVLTQSPGTLSLSPGERATMTCTASSSVSSSYFHWYQQKPGQAPRLWIYRTSRLASGVPDRFSGSGSGTDFTLTISRLEPEDAATYYCHQFHRSPLTFGAGTKLEIKRTVAAPSVFIFPPSDEQLKSGTASVVCLLNNFYPREAKVQWKVDNALQSGNSQESVTEQDSKDSTYSLSSTLTLSKADYEKHKVYACEVTHQGLSSPVTKSFNRGEC | 92 | 102 | 93 | 99
Spesolimab AP1b fraction (CEX acidic peak fraction AP1b) (antibody, human IgG1, kappa, L234A L235A, IgG1; Cation exchange fraction, RT 26.0-27.3 min, 7.6% of total CEX area) heavy: not shown light: QIVLTQSPGTLSLSPGERATMTCTASSSVSSSYFHWYQQKPGQAPRLWIYRTSRLASGVPDRFSGSGSGTDFTLTISRLEPEDAATYYCHQFHRSPLTFGAGTKLEIKRTVAAPSVFIFPPSDEQLKSGTASVVCLLNNFYPREAKVQWKVDNALQSGNSQESVTEQDSKDSTYSLSSTLTLSKADYEKHKVYACEVTHQGLSSPVTKSFNRGEC | 89 | 99 | 92 | 100
Spesolimab AP3b fraction (CEX acidic peak fraction AP3b) (antibody, human IgG1, kappa, L234A L235A, IgG1; Cation exchange fraction, RT 18.7-20.6 min, 0.8% of total CEX area) heavy: not shown light: QIVLTQSPGTLSLSPGERATMTCTASSSVSSSYFHWYQQKPGQAPRLWIYRTSRLASGVPDRFSGSGSGTDFTLTISRLEPEDAATYYCHQFHRSPLTFGAGTKLEIKRTVAAPSVFIFPPSDEQLKSGTASVVCLLNNFYPREAKVQWKVDNALQSGNSQESVTEQDSKDSTYSLSSTLTLSKADYEKHKVYACEVTHQGLSSPVTKSFNRGEC | 84 | 80 | 87 | 93
Spesolimab AP1c fraction (CEX acidic peak fraction AP1c) (antibody, human IgG1, kappa, L234A L235A, IgG1; Cation exchange fraction, RT 24.1-26.0 min, 2.2% of total CEX area) heavy: not shown light: QIVLTQSPGTLSLSPGERATMTCTASSSVSSSYFHWYQQKPGQAPRLWIYRTSRLASGVPDRFSGSGSGTDFTLTISRLEPEDAATYYCHQFHRSPLTFGAGTKLEIKRTVAAPSVFIFPPSDEQLKSGTASVVCLLNNFYPREAKVQWKVDNALQSGNSQESVTEQDSKDSTYSLSSTLTLSKADYEKHKVYACEVTHQGLSSPVTKSFNRGEC | 90 | 102 | 90 | 100
Spesolimab BP1 fraction (CEX basic peak fraction BP1) (antibody, human IgG1, kappa, L234A L235A, IgG1; Cation exchange fraction, RT 30.2-31.7 min, 3.75% of total CEX area) heavy: not shown light: QIVLTQSPGTLSLSPGERATMTCTASSSVSSSYFHWYQQKPGQAPRLWIYRTSRLASGVPDRFSGSGSGTDFTLTISRLEPEDAATYYCHQFHRSPLTFGAGTKLEIKRTVAAPSVFIFPPSDEQLKSGTASVVCLLNNFYPREAKVQWKVDNALQSGNSQESVTEQDSKDSTYSLSSTLTLSKADYEKHKVYACEVTHQGLSSPVTKSFNRGEC | 95 | 97 | 93 | 100
Spesolimab AP3a fraction (CEX acidic peak fraction AP3a) (antibody, human IgG1, kappa, L234A L235A, IgG1; Cation exchange fraction, RT 20.6-22.7 min, 2.8% of total CEX area) heavy: not shown light: QIVLTQSPGTLSLSPGERATMTCTASSSVSSSYFHWYQQKPGQAPRLWIYRTSRLASGVPDRFSGSGSGTDFTLTISRLEPEDAATYYCHQFHRSPLTFGAGTKLEIKRTVAAPSVFIFPPSDEQLKSGTASVVCLLNNFYPREAKVQWKVDNALQSGNSQESVTEQDSKDSTYSLSSTLTLSKADYEKHKVYACEVTHQGLSSPVTKSFNRGEC | 88 | 91 | 88 | 98
